Laboratory results taken from patent publication US20020068706A1.

Tests used:
CDK4/cyclin D1 complex = CDK4/cyclin D1 complex (UniProt P11802); experiment: cell-based or functional assay
cdc2/cyclin B complex = cdc2/cyclin B complex (UniProt P06493); experiment: cell-based or functional assay
Sequence of cdc2/cyclin B complex (P06493 whole entry, one chain of several): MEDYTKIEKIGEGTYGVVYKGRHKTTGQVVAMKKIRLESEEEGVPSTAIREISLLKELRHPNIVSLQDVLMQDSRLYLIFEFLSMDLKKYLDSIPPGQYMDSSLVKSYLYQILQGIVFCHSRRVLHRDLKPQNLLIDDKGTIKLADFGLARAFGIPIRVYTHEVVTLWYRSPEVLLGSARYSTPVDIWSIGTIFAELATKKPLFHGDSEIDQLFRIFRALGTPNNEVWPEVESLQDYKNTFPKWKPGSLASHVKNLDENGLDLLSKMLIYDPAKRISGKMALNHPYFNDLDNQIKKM

Sequence of CDK4/cyclin D1 complex (P11802 whole entry, chain 1 of 2): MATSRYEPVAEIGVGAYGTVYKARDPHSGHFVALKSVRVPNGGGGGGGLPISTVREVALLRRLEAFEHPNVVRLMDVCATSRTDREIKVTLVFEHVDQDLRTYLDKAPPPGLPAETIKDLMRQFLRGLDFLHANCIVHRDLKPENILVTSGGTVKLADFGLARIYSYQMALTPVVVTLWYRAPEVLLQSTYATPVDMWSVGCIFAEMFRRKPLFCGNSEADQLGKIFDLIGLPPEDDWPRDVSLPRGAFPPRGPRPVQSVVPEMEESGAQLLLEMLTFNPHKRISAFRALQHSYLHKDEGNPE
Sequence of CDK4/cyclin D1 complex (P24385 whole entry, chain 2 of 2, further chain): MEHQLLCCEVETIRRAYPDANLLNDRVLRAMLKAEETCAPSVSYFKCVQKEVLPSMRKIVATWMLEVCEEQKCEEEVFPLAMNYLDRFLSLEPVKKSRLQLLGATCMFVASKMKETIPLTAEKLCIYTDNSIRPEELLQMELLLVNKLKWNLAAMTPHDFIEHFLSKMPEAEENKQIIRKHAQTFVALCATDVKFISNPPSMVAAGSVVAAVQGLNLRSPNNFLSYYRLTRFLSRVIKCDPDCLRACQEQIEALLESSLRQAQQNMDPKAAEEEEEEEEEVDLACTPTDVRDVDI

Substance: p27 (from UniProt P46527 1-198)
- IC50 of in vitro kinase assay (32P incorporation into Gst-Rb) (CDK4/cyclin D1 complex): 63 nM
- IC50 of in vitro kinase assay (32P incorporation into Gst-Rb) (cdc2/cyclin B complex): 20 nM
